Assay: yeast display, Sf9 membrane polyspecificity reagent, FACS + sequencing; frameworks hold sequencing errors
Summary of the method: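 Genes from sorted yeast were amplified by colony PCR, read by MiSeq 2 × 250 sequencing and filtered on CDR length. These cells carried a synthetic nanobody library in Saccharomyces cerevisiae BJ5465 and were sorted by FACS into low and high (top ~1%) gates on anti-HA and streptavidin fluorescence. Polyreactivity is labelled according to the gate of origin.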

| Sequence | polyreactivity (PSR sort gate) |
| --- | --- |
| QVQLVESGGGLVQAGGSLRLSCAASGSIFYRYAMGWYRQAPGKERELVAAISSTGSTYYADSVKGRFTISRDNAKNTVYLQMNSLKPEDTAVYYCAARQGYRSYRRYDYWGQGTQVTVSS | high polyreactivity |
| QVQLVESGGGLVQAGGSLRLSCAASGSIFYSNAMGWYRQAPGKERELVAAITLSGRRTYYADSVKGRFTISRDNAKNTVYLQMISLKPEDTADYYCATVPYKTGYKFEYWGQGTQVTVSS | high polyreactivity |
| QVQLVESGGGLVQAGGSLRLSCAASGSIFYSNAMGWYRQAPGKERELVAAITWSGGSTYYADSVKGRFTFSRDNAKNTVYLQKNSLKPEDTSVYYCNARRNVRQTFGYEDWGQGTQVTVSS | high polyreactivity |
| QVQLVESGGGLVQAGGSLRLSCAASGSIFYSNVMGWYRLAPGKERELVAAITRGGGTNYADSVKGRFTISRDNAKNTVYLQMNSLKPEDTAVYYCNRDPQKYRWIPRYDYWGQGTQVTVSS | low polyreactivity |
| QVQLVESGGGLVQAGGSLRLSCAASGSIFYSNVMGWYRQATGKERELVAAIRYSGVGTYYADSVKGRFTISRDNAKNTVYLQMNSLKPEDTAVYYSNAVTKVGYLRRRDYWGQGTQVTVSS | low polyreactivity |
| QVQLVESGGGLVQAGGSLRLSCAASGSIFYSYAMGWYRQAPGKERELVAAINSGGRTYYADSVKGRFTISRDNAKNTVYLQMNSLKPEDTAVYYCAARHRWGRAYDYWGQGTQVTVSS | high polyreactivity |
| QVQLVESGGGLVQAGGSLRLSCAASGSIFYSYAMGWYRQAPGKERELVAAITTGGSTYYADSVKGRFTISRDNAKNTVYLQMNSLKPEDTAVYYCAADFKPTVTNEPKELDYWGQGTQVTVSS | low polyreactivity |
| QVQLVESGGGLVQAGGSLRLSCAASGSIFYSYAMGWYRQAPGKERELVAGIRSDGNTNYADSVKGRFTISRDNAKNTVYLQMNSLKPEDTAVYYCARLRYFLLNGSLRYGTSDRDYWGQGTQVTVSS | high polyreactivity |
| QVQLVESGGGLVQAGGSLRLSCAASGSIFYSYAMGWYRRAPGKERELVARITSSTGRTYYADSVKGRFTISRDNAKNTVYLQMNSLKAEDTAVYYCNVVVKGAWDYYPYDYWGQGTQVTVSS | high polyreactivity |
| QVQLVESGGGLVQAGGSLRLSCAASGSIFYSYVMGWYRQAPGKERELVAAITTGGSTYYADSVKGRFTISRDNAKNTVYLQMNSLKPEDTAVYYCAAELVGTEYDYWGQGTQVTVSS | low polyreactivity |
| QVQLVESGGGLVQAGGSLRLSCAASGSIFYTNAMGWYRQAHGKERELVAAIRTGGSTNYADSVKGRFTISRDNAKNTDYLQMNSLTPDDTAVYYCNADVYIRDLFYPYIYTYDYWGQGTQVTVSS | low polyreactivity |
| QVQLVESGGGLVQAGGSLRLSCAASGSIFYTNDMGWYRQAPGKERELVAAIRYSGVSTYYADSVKGRFTISRDNAKNTVYLQMNSLKPEDTAVYYCATTAYGYRSYSQSQQDMEYWGQGTQVTVSS | high polyreactivity |
| QVQLVESGGGLVQAGGSLRLSCAASGSIFYVNAMGWNRQPPGKERELVAGITSGGRTNYADSVKGRFTISRDNAKNSVYLQMNSLKPEDTAVYYCATEIRITGLYRYDYWGQGTQVTVSS | low polyreactivity |
| QVQLVESGGGLVQAGGSLRLSCAASGSIFYVNGMGWYRQAPGKERELVARITLSGTSTYYADSVKGRFTISRDNAKNTVYLQRNSLKPEDPAVYYCAAPYFTYGQDEDEYWGQGTQGTVSS | low polyreactivity |
| QVQLVESGGGLVQAGGSLRLSCAASGSIFYVYAMGRYRQAPGKERELVASITRRRTNYADSVKVRFTISRDNAKNTVYLQMNSLKPEDTAVYYCAATTYVRQYATYDYWGQGTQVTVSS | high polyreactivity |
| QVQLVESGGGLVQAGGSLRLSCAASGSIFYVYAMGRYRQAPGTEWELVAAISSGDISYYADSVKGRFTISRDNAKNTVYLQKNSLKPEDTAVYYCNAERLGNTLSPGGDDYWGQGTQVTVSS | low polyreactivity |

| Sequence | polyreactivity (PSR sort gate) |
| --- | --- |
| QVQLVESGGGLVQAGGSLRLSCAASGSIFYVYAMGWYIQAPGKERELVASIRWIGDRTYYADSVKGRFTISRDNAKNTVYLQMNSLKPEDTAVYYCAADPRYYGYYYLTPRYYYWGQGTQVTVSS | high polyreactivity |
| QVQLVESGGGLVQAGGSLRLSCAASGSIFYVYAMGWYRQAPGKERELVAAINTSGGSTFYADSVKGRFTISRDNAKNTVYLQMNSLKPEDTAVYYCAAERFRYRSTDTMGYWGQGTQVTVSS | low polyreactivity |
| QVQLVESGGGLVQAGGSLRLSCAASGSIFYVYAMGWYRQAPGKERELVAAISRRGARTYYADSVKGRFTISRDTAKYPVYLQMNSLQPEDTAVYYCNADQYSTVGYSAEYEYWGHGTQVTVSS | low polyreactivity |
| QVQLVESGGGLVQAGGSLRLSCAASGSIFYVYAMGWYRQAPGKERELVAAITSSGTTNYADSVKGRFTISRDNAKNTVYLQMNSLKPEDTAVYYCAADFYYYKKQYDYWGQGTQVTVSS | low polyreactivity |
| QVQLVESGGGLVQAGGSLRLSCAASGSIFYVYAMGWYRQAPGKERELVADITTRDGDTYYADSVKGRFTISRDNAKNTVYLQMNSLKPEDTAVYYCAADLNAYPQRAYDYWGQGTQVTVSS | low polyreactivity |
| QVQLVESGGGLVQAGGSLRLSCAASGSIFYVYAMGWYRQAPGKEREMVAAISKSGGSTYYADSVKGRFTISRDNAKNTVYLQMNSLKPEDTADYYCAAYFSYGSIIEDYWGQGTQVTVSS | low polyreactivity |
| QVQLVESGGGLVQAGGSLRLSCAASGSIFYWNAMGWYRQAPGKEREFVADISQSGDSTYYADSVKGRFTISRDNAKNTVYLQMNSLKQEDTAVYYCAAQFLSYAWDYDYWGQGTQVTVSS | low polyreactivity |
| QVQLVESGGGLVQAGGSLRLSCAASGSIFYWNAMGWYRQAPGKERELVAGISQRGGRTSYADSVKGRFTISRDNAKNTVYLQMNSLKPEDTAVYYCAATSVYPRSGSSRYDYWGQGTQVTVSS | low polyreactivity |
| QVQLVESGGGLVQAGGSLRLSCAASGSIFYWNAMGWYRQAPWKERELVASINWSGSTYYADSVKGSFTISRDNAKNTVYLQMNSLKPEDTAVYYCNTDPRVSDASADMEYWGQGTQVTVSS | high polyreactivity |
| QVQLVESGGGLVQAGGSLRLSCAASGSIFYWYAMGWYRQAPGKERELVAAISRNGGNTYYADSVKGRFTISRDNAKNTVYLQMNSLKPEDTAVYYCAVAGTVLSHMGYWGQGTQVTVSS | low polyreactivity |
| QVQLVESGGGLVQAGGSLRLSCAASGSIFYWYAMGWYRQAPGKERELVAAISSGGSTNYADSVKGRFTISRDNAKNTVYLQMNSLKPEDTAVYYCNADIRSFYWEYYTGLDSWGQGTQVTVSS | low polyreactivity |
| QVQLVESGGGLVQAGGSLRLSCAASGSIFYWYAMGWYRQAPGKERELVAAISSSGSTNYADSVKGRFTISRDNAKNTVYLQMNSLKPEDTAVYYCAAYRTGYNGWGYGYWGQGTQVTVSS | high polyreactivity |
| QVQLVESGGGLVQAGGSLRLSCAASGSIFYYAMGWYRQAPGKERELVAAISSGGRTNYADSVKGRFTISRDNAKNTVYLQMNSLKPEDTAVYYCAAVSPYGSQYGYWGQGTQVTVSS | high polyreactivity |
| QVQLVESGGGLVQAGGSLRLSCAASGSIFYYAMGWYRQAPGKERELVATISASGGSTYYADSVKGRFTISRDNEKNTVYLQMNSLKAEDTAVYYCAVRYKSWYGFNYWGQGTQVTVSS | high polyreactivity |
| QVQLVESGGGLVQAGGSLRLSCAASGSIFYYKYAMGWYRQAPGKERELVAAITSTGGTTYYADSVKGRFTISRDNAKNTVYLQMNSLKPEDTAVYYCAALAPYIGGVDYDYWGQGTQVTVSS | low polyreactivity |

From the nanobody polyreactivity screen of Harvey et al. (2022)
